From patent KR20190044006A (dated 2019)

Molecular target: 재조합 MERS-CoV S1-RBD 단백질 (MERS-CoV EMC/2012, UniProt K9N5Q8 358-606)
Assay: ELISA screening of hybridoma supernatants on RBD antigen

B1: 단일 클론 항체 AT2F7 (antibody, V domains shown)
VH: EVKLVESGGGLVKPGGSLKLSCAASGFTFSSYTMSWVRQTPEKRLEWVATISSGGSYTYYPDSVKGRFTISRDNAKNTLYLQMSSLKSEDTAMYYCTRDLYDGYFYYAMDYWGQGTSVTVSS
VL: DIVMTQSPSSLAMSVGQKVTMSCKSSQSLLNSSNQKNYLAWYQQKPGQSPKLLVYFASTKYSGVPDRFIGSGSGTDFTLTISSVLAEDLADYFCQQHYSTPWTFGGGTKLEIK
B1: binds.
